Tests used:
[1] = target: T1, Transmembrane serine protease 2 (TMPRSS2) (UniProt O15393 106-492); assay: cell-based or functional assay
[2] = target: T1, Transmembrane serine protease 2 …; assay: ratio of second order inhibition rate constants, with A1AT as reference

T1 sequence (O15393 106-492 limits assumed): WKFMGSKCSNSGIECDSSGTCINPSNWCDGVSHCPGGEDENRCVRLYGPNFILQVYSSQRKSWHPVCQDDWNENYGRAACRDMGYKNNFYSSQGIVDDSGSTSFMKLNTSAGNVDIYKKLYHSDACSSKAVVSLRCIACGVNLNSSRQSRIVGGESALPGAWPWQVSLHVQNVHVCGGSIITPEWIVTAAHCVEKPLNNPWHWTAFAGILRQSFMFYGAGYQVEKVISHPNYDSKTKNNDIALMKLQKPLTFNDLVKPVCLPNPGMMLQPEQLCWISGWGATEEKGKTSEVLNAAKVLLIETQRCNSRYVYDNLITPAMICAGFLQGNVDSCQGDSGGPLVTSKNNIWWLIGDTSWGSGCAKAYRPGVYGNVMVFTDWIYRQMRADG

B1: SerpinB3-TMP variant (other)
chain: MNSLSEANTKFMFDLFQQFRKSKENNIFYSPISITSALGMVLLGAKDNTAQQIKKVLHFDQVTENTTGKAATYHVDRSGNVHHQFQKLLTEFNKSTDAYELKIANKLFGEKTYLFLQEYLDAIKKFYQTSVESVDFANAPEESRKKINSWVESQTNEKIKNLIPEGNIGSNTTLVLVNAIYFKGQWEKKFNKEDTKEEKFWPNKNTYKSIQMMRQYTSFHFASLEDVQAKVLEIPYKGKDLSMIVLLPNEIDGLQKLEEKLTAEKLMEWTSLQNMRETRVDLHLPRFKVEESYDLKDTLRTMGMVDIFNGDADLSGMTGSRGLVLSGVLHKAFVEVTEEGAEAAAATAVIQFRVSPTSTNEEFHCNHPFLFFIRQNKTNSILFYGRFSSP
notes: also called SerpinB3 anti-TMPRSS2; modified SerpinB3-TMP
[1]
  TMPRSS2 inhibition at a 5:1 serpin:protease ratio (residual activity on Boc-QAR-AMC after 10 min incubation): 92%
[2]
  fold increase in TMPRSS2 specificity (k2) over A1AT: 18 fold
